These results are taken from US20250313626A1 (HARBOUR BIOMED SHANGHAI, published 2025).

As usually defined, the IC50 is the concentration that gives 50% inhibition. A high value points to a need for much substance. By EC50 is commonly meant the concentration at which the effect is half-maximal. A higher EC50 goes with weaker potency.

First the molecules themselves.
T1: human CD200R1a protein (soluble recombinant) (human, UniProt Q8TD46 29-265)
T1 construct: Soluble protein used in BLI; also called human CD200R1 isoform a; not shown: His tag implied by capture on anti-Penta-HIS biosensors
T1 sequence: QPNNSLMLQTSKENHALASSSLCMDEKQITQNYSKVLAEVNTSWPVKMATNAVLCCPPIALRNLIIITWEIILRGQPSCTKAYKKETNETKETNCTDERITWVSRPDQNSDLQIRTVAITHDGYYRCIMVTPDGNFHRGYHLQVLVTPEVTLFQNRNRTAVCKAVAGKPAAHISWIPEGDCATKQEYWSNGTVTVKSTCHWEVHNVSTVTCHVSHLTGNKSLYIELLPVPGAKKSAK

T2: cell surface glycoprotein CD200 receptor 2 isoform 1 precursor CD200R1L recombinant protein (Sino … (human, UniProt Q6Q8B3 24-239))
T2 construct: Bought protein; also called hCD200R1L; recombinant human CD200R1L protein
T2 sequence: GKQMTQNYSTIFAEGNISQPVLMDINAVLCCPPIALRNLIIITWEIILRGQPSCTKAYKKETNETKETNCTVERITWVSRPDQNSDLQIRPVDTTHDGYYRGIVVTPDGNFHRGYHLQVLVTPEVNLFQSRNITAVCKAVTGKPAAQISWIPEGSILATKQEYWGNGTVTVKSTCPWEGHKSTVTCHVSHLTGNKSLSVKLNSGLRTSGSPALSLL

T3: human CD200R1 isoform a on CHOK1 cells (CHOK1/hCD200R1a) (human, UniProt Q8TD46 25-348)
T3 construct: also called CHOK1/CD200R1a
T3 sequence: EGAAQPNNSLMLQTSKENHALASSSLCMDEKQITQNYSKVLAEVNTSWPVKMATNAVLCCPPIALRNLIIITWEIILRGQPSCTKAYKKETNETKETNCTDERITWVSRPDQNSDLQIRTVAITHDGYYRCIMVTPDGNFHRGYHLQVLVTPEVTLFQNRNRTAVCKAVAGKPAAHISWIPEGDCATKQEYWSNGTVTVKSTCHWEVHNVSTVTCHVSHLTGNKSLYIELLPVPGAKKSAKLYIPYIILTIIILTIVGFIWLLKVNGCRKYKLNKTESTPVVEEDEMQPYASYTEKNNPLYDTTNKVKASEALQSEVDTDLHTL

B1: PR007973 (antibody, human IgG1, kappa, V domains shown)
VH: QVQLVESGGGVVQPGRSLRLSCAASGFTFSSYGFHWVRQAPGKGLEWLGIIWSDASNKYYADSVKGRFTISRDNSKNTLYLQMNSLRAEDTAVYYCARDRIVGEGFDYWGQGTLVTVSS
VL: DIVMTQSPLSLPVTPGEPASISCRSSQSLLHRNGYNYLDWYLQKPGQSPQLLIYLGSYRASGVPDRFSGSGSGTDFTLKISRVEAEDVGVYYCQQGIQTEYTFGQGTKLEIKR
notes: PTM variant of PR006839 (human IgG1)
B2: PR007223 (antibody, human IgG1, kappa)
heavy: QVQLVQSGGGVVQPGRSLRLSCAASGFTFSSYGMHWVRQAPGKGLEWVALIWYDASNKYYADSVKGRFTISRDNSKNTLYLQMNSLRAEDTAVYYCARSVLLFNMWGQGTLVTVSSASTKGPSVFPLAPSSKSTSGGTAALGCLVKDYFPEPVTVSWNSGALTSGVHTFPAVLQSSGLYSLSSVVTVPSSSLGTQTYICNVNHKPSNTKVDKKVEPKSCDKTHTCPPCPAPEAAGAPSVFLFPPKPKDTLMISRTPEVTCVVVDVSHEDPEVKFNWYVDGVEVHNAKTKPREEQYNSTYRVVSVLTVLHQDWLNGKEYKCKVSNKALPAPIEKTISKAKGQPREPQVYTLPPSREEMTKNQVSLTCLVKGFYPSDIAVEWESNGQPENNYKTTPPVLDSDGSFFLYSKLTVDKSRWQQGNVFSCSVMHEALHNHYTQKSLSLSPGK
light: DIQLTQSPPSLSASVGDRVTITCRASQSISSYLNWFQQKAGKAPKLLISATSNLQSGVPSRFSGSGSGTDFTLTISSLQPEDLATYYCQQTYSSPYTFGQGTKVEIKRTVAAPSVFIFPPSDEQLKSGTASVVCLLNNFYPREAKVQWKVDNALQSGNSQESVTEQDSKDSTYSLSSTLTLSKADYEKHKVYACEVTHQGLSSPVTKSFNRGEC
notes: PTM variant of PR006895 (human IgG1)
B3: PR007221 (antibody, human IgG1, kappa)
heavy: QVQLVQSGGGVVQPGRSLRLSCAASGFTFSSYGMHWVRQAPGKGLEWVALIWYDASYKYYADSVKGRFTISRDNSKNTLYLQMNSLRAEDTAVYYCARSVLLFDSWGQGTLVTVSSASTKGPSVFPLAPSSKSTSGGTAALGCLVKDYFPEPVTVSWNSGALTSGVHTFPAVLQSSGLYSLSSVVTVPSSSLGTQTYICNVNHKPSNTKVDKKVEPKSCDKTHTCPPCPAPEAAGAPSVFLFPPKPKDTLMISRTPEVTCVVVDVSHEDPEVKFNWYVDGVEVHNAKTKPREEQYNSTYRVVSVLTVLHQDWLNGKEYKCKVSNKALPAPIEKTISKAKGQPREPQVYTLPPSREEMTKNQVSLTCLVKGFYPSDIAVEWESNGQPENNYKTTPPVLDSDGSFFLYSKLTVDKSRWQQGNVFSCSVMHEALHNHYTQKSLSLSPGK
light: B2 light with Y92L
notes: as for B2
B4: PR005509 (antibody, human IgG1, kappa, L234A L235A, V domains shown)
VH: B1 VH with I50L, A55G, E104A
VL: not shown
B5: PR005474 (antibody, human IgG1, kappa, L234A L235A, V domains shown)
VH: QVQLVESGGGVVQPGRSLRLSCAASAFTFSSYGMHWVRQAPGKGLEWVALIWNDGSNKFYADSVKGRFTISRDNSKNTLFLQMNSLRAEDTAVYYCARDRILGAGFDYWGQGTLVTVSS
VL: not shown
B6: PR006480 (antibody, human IgG1, kappa, L234A L235A)
heavy: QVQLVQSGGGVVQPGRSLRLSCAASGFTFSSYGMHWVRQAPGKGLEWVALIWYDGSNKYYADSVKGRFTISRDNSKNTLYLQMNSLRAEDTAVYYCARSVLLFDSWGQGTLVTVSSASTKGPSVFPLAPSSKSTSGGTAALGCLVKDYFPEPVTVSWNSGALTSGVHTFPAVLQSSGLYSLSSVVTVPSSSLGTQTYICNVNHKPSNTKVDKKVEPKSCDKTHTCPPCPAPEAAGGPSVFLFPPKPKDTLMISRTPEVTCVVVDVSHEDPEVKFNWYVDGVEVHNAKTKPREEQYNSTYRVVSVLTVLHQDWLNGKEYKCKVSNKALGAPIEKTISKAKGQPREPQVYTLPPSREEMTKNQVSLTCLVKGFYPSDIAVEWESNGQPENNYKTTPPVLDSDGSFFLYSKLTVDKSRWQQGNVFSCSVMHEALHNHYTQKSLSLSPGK
light: B2 light with L4M, T91S
notes: also called PR6480
B7: PR002906 (antibody, V domains shown)
VH: QVQLQESGPGLVKPSETLSLTCTVSGYTITSGYDWSWIRQPPGKGLEWIGYINYGGSTNYKPSLGSRVTISVDTSKNQFSLKLSSVTAADTAVYYCARYNEYKSYIYDWYFDFWGQGTLVTVSS
VL: DIQMTQSPSSLSASVGDRVTITCKASKNIRSYLAWYQQKPGKAPKLLIYSGSTLHSGVPSRFSGSGSGTDFTLTISSLQPEDFATYYCQQHHEYPLTFGQGTKVEIKR
notes: also called recombinant IgG1 antibody of huDX182

Where a chain is given by its changes, count along the chain named.

One assay has as its target T1, human CD200R1a protein (soluble …). Kind of assay: BLI in-tandem competition on His-captured human CD200R1a; row = 1st Ab (400 nM); competitor (2nd Ab) PR007223. The procedure: (§1) To determine if the anti-CD200R1 antibodies bind to human CD200R1a on different or approximate binding epitopes, epitope competition experiments for the anti-CD200R1 antibodies were performed by the ForteBlio Octet® RED96e platform. […] The in-tandem competition assay format was applied, and it contained two association steps. Firstly, the antigen-loaded biosensors bound to each antibody (i.e., First antibody, 1st Ab) at a saturating concentration of 400 nM for 300 seconds to reach equilibrium and then secondly bound to the competing antibodies (i.e., Second antibody, 2nd Ab) of 400 nM for 300 seconds. The second binding signals are recorded as the 100% signal of each antibody when the first antibodies are replaced by kinetic buffer. All the binding data were analyzed using ForteBlio Data Analysis 11.0 software. The inhibition rate was calculated by the following formula: […]
Take B1: the “Inhibition ratio (%)” value was 91.7%.
Take B2: the “Inhibition ratio (%)” value is 91.8%.
For the molecule B3, the “Inhibition ratio (%)” value stood at 89%.

A further assay has as its target T2, cell surface glycoprotein CD200 …. In words: ELISA on plate-coated recombinant human CD200R1L. The method, then: In specific, the cell surface glycoprotein CD200 receptor 2 isoform 1 precursor CD200R1L recombinant protein (Sino Biologicals, 11620-H08H, SEQ ID NO:174) were diluted with PBS to 1 μg/mL, and added to a 96-well plate (Corning, #9018) at 100 μl per well, and incubated overnight at 4° C. After the liquid was discarded, the plate was washed 3 times with PBST buffer (pH 7.4, containing 0.05% tween-20), 250 μl 2% BSA blocking solution was added into the plate and incubated at 37° C. for 1 hour. The blocking solution was discarded and the plate was washed 3 times with PBST buffer (pH 7.4, containing 0.05% Tween-20). The anti-CD200R1 antibodies were diluted and added at 100 µl/well, incubated at 37° C. for 1 hour, with isotype antibody as a control. After the plate was washed 3 times with PBST buffer (pH 7.4, containing 0.05% Tween-20), goat anti-human HRP secondary antibody (Invitrogen, #A18805) was diluted 5000 times, added into the plate and incubated for 1 hour at 37° C. in the dark. After the plate was washed with PBST buffer (pH 7.4, containing 0.05% tween-20) for 3 times, 100p/well of TMB (Biopanda, #TMB-S-003) was add and the plate was placed in the dark at room temperature for about 30 minutes; stop solution (BBI life sciences, #E661006-0200) was added at 50p/well to each well to terminate the reaction, and the absorbance (OD450) at 450 nm was measured in a microplate reader (PerkinElemer, #Enspire).
A general note: In an ELISA, binding on a coated surface is turned into a signal by an enzyme label.
As to B1, the binding result is listed as “no binding (tested: 100 nM)”.
For the molecule B2, the binding result is “no binding (tested: 100 nM)”.
On to B3, for which the binding result was “no binding (tested: 100 nM)”.

The next assay concerns the target T3, human CD200R1 isoform a on CHOK1 cells …. In words: flow cytometry blocking assay: antibody titrated against biotin-labelled human CD200 binding to CHOK1/hCD200R1a cells. The method, then:
To study the activity of human anti-CD200R1 antibodies in blocking the binding of human CD200 to its receptor CD200R1a in vitro, CHOK1/hCD200R1a was used to perform cell-level human CD200/human CD200R1a binding and blocking experiments.
(§2) In brief, CHOK1/hCD200R1a cells were digested and resuspended in 2% BSA in PBS. […] The cells were placed at 4° C. and incubated for 1 hour in the dark. […] 100 μL/well of pre-cooled PBS containing 2% BSA was added to rinse the cells twice, centrifugation was performed at 500 g, 4° C. for 5 minutes, and the supernatant was discarded. Fluorescent secondary antibody (PE Streptavidin, BD, Cat #: 554061, 1:200) was added at 100 μL/well, and incubation was performed at 4° C. for 30 minutes in the dark. The cells were washed twice with 200 μL/well of pre-cooled PBS, and were centrifuged at 500 g, 4° C. for 5 minutes, and the supernatant was discarded. Finally, 200 μL/well of pre-cooled PBS was used to resuspend the cells, and the fluorescence signal values were read using ACEA Novocyte 3000 flow cytometer. IC50 values were calculated.
Take B4: the “Blocking (Max %)” value came out at 102% and the half-inhibitory concentration (IC50) was 0.485 nM.
With B5, the “Blocking (Max %)” value worked out at 101% and the IC50 came to 0.309 nM.
Consider B6, for which the “Blocking (Max %)” value is 63.3% and the IC50 is 0.607 nM.
Turning to B7, the “Blocking (Max %)” value came to 98.3% and the IC50 is 1.58 nM.

Another assay addresses T1, human CD200R1a protein (soluble …). Kind of assay: BLI in-tandem competition on His-captured human CD200R1a; row = 1st Ab (400 nM); competitor (2nd Ab) PR007973. The method, then: as §1
B1: the “Inhibition ratio (%)” value came out at 103%.
Consider B2, for which the “Inhibition ratio (%)” value amounted to 99.6%.
With B3, the “Inhibition ratio (%)” value is 95.6%.

A further assay has as its target T3, human CD200R1 isoform a on CHOK1 cells …. Kind of assay: flow cytometry blocking assay: antibody titrated against biotin-labelled human CD200 binding to CHOK1/hCD200R1a cells; head prints EC50 without unit, x axis Log [Ab] (nM), y axis Inhibition %. The method, then:
as §2
Molecule B6 displayed an EC50 of 0.164 nM.
B2 came in with an EC50 of 0.122 nM.
B3 came in with an EC50 of 0.194 nM.
The molecule B7 had an EC50 of 0.479 nM.
